Data from patent US20140147444A1 (published 2014).
“And” between values parts separate entries of the source, which are not always exact repeats. Equal entries are not always repeated. Values belong to the binder of their own block, whether it stands above or below them.

What was measured:
human OPGbp [143-317] [1] = molecular target: T1, human OPGbp [143-317] (human, UniProt O14788 143-317); assay: cell-based or functional assay
T1 sequence (looked up): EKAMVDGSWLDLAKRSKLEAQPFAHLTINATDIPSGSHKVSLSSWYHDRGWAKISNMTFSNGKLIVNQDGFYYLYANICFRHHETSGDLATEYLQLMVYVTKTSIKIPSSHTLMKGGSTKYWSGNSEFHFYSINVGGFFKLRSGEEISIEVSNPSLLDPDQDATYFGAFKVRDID

human OPGbp [143-317] [2] = molecular target: T1, human OPGbp [143-317]; assay: SPR (BIAcore), OPGbp on CM5 chip
Description: The binding constant (Kd), on rate constant (ka) and off rate constant (kd) for Fabs “AT” and “Y” and “AT” antibody were determined by surface plasmon resonance techniques (BIAcore, Pharmacia, Piscataway, N.J.) and the results are shown in Table II. Fabs were prepared as described in Example 4 and “AT” antibody prepared as described in Example 7. OPGbp was immobilized on a CM5-chip by standard amine coupling. The Kd and rate constants were determined by BIAEVALUATION 3.0 software (Pharmacia).

human OPGbp [143-317] [3] = molecular target: T1, human OPGbp [143-317]; assay: SPR (BIAcore), immobilized OPGbp [143-317]
human OPGbp [143-317] [4] = molecular target: T1, human OPGbp [143-317]; assay: FRET competition, inhibition of OPGbp-Eu binding to sODAR-Fc
Description: (§1) A 1 hour preincubation with OPGbp was added for increased sensitivity. A soluble extracellular domain of human ODAR was constructed as a fusion polypeptide with an amino terminal FLAG tag and a carboxy terminal human Fc region. The Fc region is recognized and bound by a polyclonal goat anti-human Fc specific allophycocyanin (APC) which is detected by […] at 665 nm. […] Binding of OPGbp to ODAR in this assay triggers a fluorescent energy transfer and is highly sensitive for competition curves. A decrease in the A665/A620 absorbance ratio indicates inhibition of OPGbp binding to ODAR.
(§2) The Fab “Y” clone 1B4 was from the predominant 9 member pattern from one 96-well plate (all with same amino acid sequence) from the optimized plated OPGbp screen using a 1 μM OPGbp elution for 90 min. […] Similar IC50's were obtained with the duplicate preparations “A” and “B”.

human OPGbp [143-317] [5] = molecular target: T1, human OPGbp [143-317]; assay: FRET competition, inhibition of OPGbp-Eu binding to sODAR-Fc, in PBS
Description: as §1, §2

human OPGbp [143-317] [6] = molecular target: T1, human OPGbp [143-317]; assay: FRET competition, inhibition of OPGbp-Eu binding to sODAR-Fc, in TBS
Description: as §1, §2

- koff (human OPGbp [143-317] [3]): 0.074 s⁻¹
B3: “AT” Fab variant Y(100g)A (heavy chain CDR3) (Fab, name in Kabat numbering, V domains shown)
VH: QVQLVQSGAEVRKPGASVKVSCKASGYDFSNYAIHWVRQAPGQRLEWMGWINAGNGNTKFSQKFQGRITVTRDTAASTAYMELRSLRSEDTAVYYCARDSSNMVRGIIIAAYFDYWGQGTLVTVSS
VL: EIVMTQSPSSLSASVGDRVTITCRASQSISRYLNWYQLKPGKAPRLLIYGASSLQSGVPSRFSGSGSGAEFTLTISSLQPEDIATYYCQHTRAFGQGTKVEIKR

- koff (human OPGbp [143-317] [3]): 0.368 s⁻¹
B5: “AT” Fab variant Y(100h)A (heavy chain CDR3) (Fab, name in Kabat numbering, V domains shown)
VH: QVQLVQSGAEVRKPGASVKVSCKASGYDFSNYAIHWVRQAPGQRLEWMGWINAGNGNTKFSQKFQGRITVTRDTAASTAYMELRSLRSEDTAVYYCARDSSNMVRGIIIAYAFDYWGQGTLVTVSS
VL: EIVMTQSPSSLSASVGDRVTITCRASQSISRYLNWYQLKPGKAPRLLIYGASSLQSGVPSRFSGSGSGAEFTLTISSLQPEDIATYYCQHTRAFGQGTKVEIKR

- koff (human OPGbp [143-317] [3]): 0.0069 s⁻¹
B6: “AT” Fab variant I(100e)A (heavy chain CDR3) (Fab, name in Kabat numbering, V domains shown)
VH: QVQLVQSGAEVRKPGASVKVSCKASGYDFSNYAIHWVRQAPGQRLEWMGWINAGNGNTKFSQKFQGRITVTRDTAASTAYMELRSLRSEDTAVYYCARDSSNMVRGIIAAYYFDYWGQGTLVTVSS
VL: EIVMTQSPSSLSASVGDRVTITCRASQSISRYLNWYQLKPGKAPRLLIYGASSLQSGVPSRFSGSGSGAEFTLTISSLQPEDIATYYCQHTRAFGQGTKVEIKR

- koff (human OPGbp [143-317] [3]): 0.0072 s⁻¹
B7: “AT” Fab variant S96A (heavy chain CDR3) (Fab, name in Kabat numbering, V domains shown)
VH: QVQLVQSGAEVRKPGASVKVSCKASGYDFSNYAIHWVRQAPGQRLEWMGWINAGNGNTKFSQKFQGRITVTRDTAASTAYMELRSLRSEDTAVYYCARDASNMVRGIIIAYYFDYWGQGTLVTVSS
VL: EIVMTQSPSSLSASVGDRVTITCRASQSISRYLNWYQLKPGKAPRLLIYGASSLQSGVPSRFSGSGSGAEFTLTISSLQPEDIATYYCQHTRAFGQGTKVEIKR

- koff (human OPGbp [143-317] [3]): 0.012 s⁻¹
B8: “AT” Fab variant N98A (heavy chain CDR3) (Fab, name in Kabat numbering, V domains shown)
VH: QVQLVQSGAEVRKPGASVKVSCKASGYDFSNYAIHWVRQAPGQRLEWMGWINAGNGNTKFSQKFQGRITVTRDTAASTAYMELRSLRSEDTAVYYCARDSSAMVRGIIIAYYFDYWGQGTLVTVSS
VL: EIVMTQSPSSLSASVGDRVTITCRASQSISRYLNWYQLKPGKAPRLLIYGASSLQSGVPSRFSGSGSGAEFTLTISSLQPEDIATYYCQHTRAFGQGTKVEIKR

- koff (human OPGbp [143-317] [3]): 0.261 s⁻¹
B9: “AT” Fab variant V100A (heavy chain CDR3) (Fab, name in Kabat numbering, V domains shown)
VH: QVQLVQSGAEVRKPGASVKVSCKASGYDFSNYAIHWVRQAPGQRLEWMGWINAGNGNTKFSQKFQGRITVTRDTAASTAYMELRSLRSEDTAVYYCARDSSNMARGIIIAYYFDYWGQGTLVTVSS
VL: EIVMTQSPSSLSASVGDRVTITCRASQSISRYLNWYQLKPGKAPRLLIYGASSLQSGVPSRFSGSGSGAEFTLTISSLQPEDIATYYCQHTRAFGQGTKVEIKR

- koff (human OPGbp [143-317] [3]): 0.303 s⁻¹
B11: “AT” Fab variant R(100a)A (heavy chain CDR3) (Fab, name in Kabat numbering, V domains shown)
VH: QVQLVQSGAEVRKPGASVKVSCKASGYDFSNYAIHWVRQAPGQRLEWMGWINAGNGNTKFSQKFQGRITVTRDTAASTAYMELRSLRSEDTAVYYCARDSSNMVAGIIIAYYFDYWGQGTLVTVSS
VL: EIVMTQSPSSLSASVGDRVTITCRASQSISRYLNWYQLKPGKAPRLLIYGASSLQSGVPSRFSGSGSGAEFTLTISSLQPEDIATYYCQHTRAFGQGTKVEIKR

- koff (human OPGbp [143-317] [3]): 0.0062 s⁻¹
B14: “AT” Fab variant S97A (heavy chain CDR3) (Fab, name in Kabat numbering, V domains shown)
VH: QVQLVQSGAEVRKPGASVKVSCKASGYDFSNYAIHWVRQAPGQRLEWMGWINAGNGNTKFSQKFQGRITVTRDTAASTAYMELRSLRSEDTAVYYCARDSANMVRGIIIAYYFDYWGQGTLVTVSS
VL: EIVMTQSPSSLSASVGDRVTITCRASQSISRYLNWYQLKPGKAPRLLIYGASSLQSGVPSRFSGSGSGAEFTLTISSLQPEDIATYYCQHTRAFGQGTKVEIKR

- koff (human OPGbp [143-317] [3]): 1.12 s⁻¹
B15: “AT” Fab variant M99A (heavy chain CDR3) (Fab, name in Kabat numbering, V domains shown)
VH: QVQLVQSGAEVRKPGASVKVSCKASGYDFSNYAIHWVRQAPGQRLEWMGWINAGNGNTKFSQKFQGRITVTRDTAASTAYMELRSLRSEDTAVYYCARDSSNAVRGIIIAYYFDYWGQGTLVTVSS
VL: EIVMTQSPSSLSASVGDRVTITCRASQSISRYLNWYQLKPGKAPRLLIYGASSLQSGVPSRFSGSGSGAEFTLTISSLQPEDIATYYCQHTRAFGQGTKVEIKR

The remaining lines, values behind:

B1: Fab “AT” (Fab, V domains shown)
VH: QVQLVQSGAEVRKPGASVKVSCKASGYDFSNYAIHWVRQAPGQRLEWMGWINAGNGNTKFSQKFQGRITVTRDTAASTAYMELRSLRSEDTAVYYCARDSSNMVRGIIIAYYFDYWGQGTLVTVSS
VL: EIVMTQSPSSLSASVGDRVTITCRASQSISRYLNWYQLKPGKAPRLLIYGASSLQSGVPSRFSGSGSGAEFTLTISSLQPEDIATYYCQHTRAFGQGTKVEIKR
notes: Soluble Fab from E. coli periplasm purified on Talon resin; also called soluble Fab “AT”; Fab pattern “AT”
- RAW cell assay (TRAP, OD405), IC50 (human OPGbp [143-317] [1]): 15 µg/ml and 300 nM
- murine bone marrow assay, TRAP activity in solution (pNPP), 50% decrease (IC50) (human OPGbp [143-317] [1]): 57.8 nM
- Kd (human OPGbp [143-317] [2]): 140 nM
- koff (human OPGbp [143-317] [2]): 0.31 s⁻¹
- kon (human OPGbp [143-317] [2]): 2.2e+06 M⁻¹ s⁻¹
- koff (human OPGbp [143-317] [3]): 0.284 s⁻¹
- IC50 (human OPGbp [143-317] [4]): 0.55 µM
- IC50 (human OPGbp [143-317] [5]): 440 nM
- IC50 (human OPGbp [143-317] [6]): 354 nM

B2: Fab “Y” (Fab, V domains shown)
VH: EVQLVQSGAEVRKPGASVKVSCKASGYDFSNYAIHWVRQAPGQRLEWMGWINAGNGNTKFSQKFQGRITVTRDTAASTAYMELRSLRSEDTAVYYCARDSSNMVRGIIIAYYFDYWGQGTLVTVSS
VL: EIVLTQSPATLSFSPGERATLSCRASQSVGSYLAWYQQRPGQAPRPLIYDATNRATGIPTRFSGSGSGTDFTLTISSLEPEDFATYYCQHRRTFGRGTKLEIKR
notes: also called soluble Fab “Y”; Fab pattern “Y”
- Kd (human OPGbp [143-317] [2]): 594 nM
- koff (human OPGbp [143-317] [2]): 0.00591 s⁻¹
- kon (human OPGbp [143-317] [2]): 9440 M⁻¹ s⁻¹
- IC50 (human OPGbp [143-317] [4]): 6 µM
- IC50 (human OPGbp [143-317] [6]): 4100 nM

B4: “AT” Fab variant I(100d)A (heavy chain CDR3) (Fab, name in Kabat numbering, V domains shown)
VH: QVQLVQSGAEVRKPGASVKVSCKASGYDFSNYAIHWVRQAPGQRLEWMGWINAGNGNTKFSQKFQGRITVTRDTAASTAYMELRSLRSEDTAVYYCARDSSNMVRGIAIAYYFDYWGQGTLVTVSS
VL: EIVMTQSPSSLSASVGDRVTITCRASQSISRYLNWYQLKPGKAPRLLIYGASSLQSGVPSRFSGSGSGAEFTLTISSLQPEDIATYYCQHTRAFGQGTKVEIKR
- koff (human OPGbp [143-317] [3]): 0.622 s⁻¹

B10: “AT” Fab variant I(100c)A (heavy chain CDR3) (Fab, name in Kabat numbering, V domains shown)
VH: QVQLVQSGAEVRKPGASVKVSCKASGYDFSNYAIHWVRQAPGQRLEWMGWINAGNGNTKFSQKFQGRITVTRDTAASTAYMELRSLRSEDTAVYYCARDSSNMVRGAIIAYYFDYWGQGTLVTVSS
VL: EIVMTQSPSSLSASVGDRVTITCRASQSISRYLNWYQLKPGKAPRLLIYGASSLQSGVPSRFSGSGSGAEFTLTISSLQPEDIATYYCQHTRAFGQGTKVEIKR
- koff (human OPGbp [143-317] [3]): 0.53 s⁻¹

B12: “AT” Fab variant G(100b)A (heavy chain CDR3) (Fab, name in Kabat numbering, V domains shown)
VH: QVQLVQSGAEVRKPGASVKVSCKASGYDFSNYAIHWVRQAPGQRLEWMGWINAGNGNTKFSQKFQGRITVTRDTAASTAYMELRSLRSEDTAVYYCARDSSNMVRAIIIAYYFDYWGQGTLVTVSS
VL: EIVMTQSPSSLSASVGDRVTITCRASQSISRYLNWYQLKPGKAPRLLIYGASSLQSGVPSRFSGSGSGAEFTLTISSLQPEDIATYYCQHTRAFGQGTKVEIKR
- koff (human OPGbp [143-317] [3]): 0.657 s⁻¹

B13: “AT” Fab variant D95A (heavy chain CDR3) (Fab, name in Kabat numbering, V domains shown)
VH: QVQLVQSGAEVRKPGASVKVSCKASGYDFSNYAIHWVRQAPGQRLEWMGWINAGNGNTKFSQKFQGRITVTRDTAASTAYMELRSLRSEDTAVYYCARASSNMVRGIIIAYYFDYWGQGTLVTVSS
VL: EIVMTQSPSSLSASVGDRVTITCRASQSISRYLNWYQLKPGKAPRLLIYGASSLQSGVPSRFSGSGSGAEFTLTISSLQPEDIATYYCQHTRAFGQGTKVEIKR
- binding result (human OPGbp [143-317] [3]): no binding

B16: human OPG [22-194]-Fc (Fc fusion, UniProt O00300 22-194, looked up, not shown: a dimerising Fc or GST)
chain: ETFPPKYLHYDEETSHQLLCDKCPPGTYLKQHCTAKWKTVCAPCPDHYYTDSWHTSDECLYCSPVCKELQYVKQECNRTHNRVCECKEGRYLEIEFCLKHRSCPPGFGVVQAGTPERNTVCKRCPDGFFSNETSSKAPCRKHTNCSVFGLLLTQKGNATHDNICSGNSESTQK
- RAW cell assay, IC50, positive control (human OPGbp [143-317] [1]): 33 ng/mL
